Legend:
SOD1(G93A) mice [1] = test: Intramuscular Salubrinal into one hindlimb of SOD1(G93A) mice: ER stress, UPR, microglia activation, neuromuscular junctions; assay type: in vivo
embryonic motor neuron = details: cited from earlier work
motoneurons = details: in vivo; cited from earlier work
[2] = tested on: murine models of inherited progressive motor degeneration; details: CNTF and/or BDNF; cited from earlier work
SOD1(G93A) mice [3] = test: Intramuscular CNTF in SOD1(G93A) mice: stress responses in VUL MNs and microglia activation; assay type: in vivo
SOD1(G93A) mice [4] = details: intramuscular applications of CNTF; stated as known effect; cited from earlier work
[5] = early treatment P14 until P32, analyzed at P39
[6] = early treatment P14 until P32, analyzed at P53
[7] = late treatment P39 until P50, analyzed at P53
[8] = CNTF intramuscular from P28 to P40

O=C(/C=C/c1ccccc1)NC(NC(=S)Nc1cccc2cccnc12)C(Cl)(Cl)Cl (centres unmarked) [Salubrinal]
disease process during the Salubrinal treatments (SOD1(G93A) mice [1]; early and late treatments taken together): partially reversed
disease process during administration (SOD1(G93A) mice [1]; early treatment P14 until P32): effectively arrested
UPR (SOD1(G93A) mice [1]; [5]): no evidence of a UPR
microglia activation (SOD1(G93A) mice [1]; [5]): no microglia activation
levels of BiP (SOD1(G93A) mice [1]; early treatment P14 until P32, analyzed at P39 (7 days after discontinuation)): low levels
loss of synaptic vesicles at neuromuscular junctions (SOD1(G93A) mice [1]; [6]): no loss
microglia activation (SOD1(G93A) mice [1]; [6]): mild microglia activation
UPR (SOD1(G93A) mice [1]; early treatment P14 until P32, analyzed at P53 (21 days after discontinuation)): early signs of a UPR
UPR (SOD1(G93A) mice [1]; [7]): mild UPR
loss of neuromuscular junction synaptic vesicles (SOD1(G93A) mice [1]; [7]): no loss
microglia activation (SOD1(G93A) mice [1]; [7]): mild microglia activation

LIF: cytokine
embryonic motor neuron survival in culture (embryonic motor neuron): enhanced

IGF-1: neurotrophic factor
embryonic motor neuron survival in culture (embryonic motor neuron): enhanced

B1: NT-3: member of the neurotrophin family (protein, UniProt P20783 139-257, looked up)
Neurotrophin-3: YAEHKSHRGEYSVCDSESLWVTDKSSAIDIRGHQVTVLGEIKTGNSPVKQYFYETRCKEARPVKNGCRGIDDKHWNSQCKTSQTYVRALTSENNKLVGWRWIRIDTSCVCALSRKIGRT
embryonic motor neuron survival in culture (embryonic motor neuron): enhanced

B2: cardiotrophin-1: cytokine present in embryonic muscle (protein, UniProt Q16619 1-201, looked up)
Cardiotrophin-1: MSRREGSLEDPQTDSSVSLLPHLEAKIRQTHSLAHLLTKYAEQLLQEYVQLQGDPFGLPSFSPPRLPVAGLSAPAPSHAGLPVHERLRLDAAALAALPPLLDAVCRRQAELNPRAPRLLRRLEDAARQARALGAAVEALLAALGAANRGPRAEPPAATASAASATGVFPAKVLGLRVCGLYREWLSRTEGDLGQLLPGGSA
embryonic motor neuron survival in culture (embryonic motor neuron): enhanced
motoneuronal death occurring naturally during embryonic development (motoneurons): reduction

B3: GDNF: neurotrophic factor (protein, UniProt P39905 78-211, looked up)
Glial cell line-derived …: SPDKQMAVLPRRERNRQAAAANPENSRGKGRRGQRGKNRGCVLTAIHLNVTDLGLGYETKEELIFRYCSGSCDAAETTYDKILKNLSRNRRLVSDKVGQACCRPIAFDDDLSFLDDNLVYHILRKHSAKRCGCI
embryonic motor neuron survival in culture (embryonic motor neuron): enhanced
motoneuronal death occurring naturally during embryonic development (motoneurons): reduction

B4: NT-4: member of the neurotrophin family (protein, UniProt P34130 81-210, looked up)
Neurotrophin-4: GVSETAPASRRGELAVCDAVSGWVTDRRTAVDLRGREVEVLGEVPAAGGSPLRQYFFETRCKADNAEEGGPGAGGGGCRGVDRRHWVSECKAKQSYVRALTADAQGRVGWRWIRIDTACVCTLLSRTGRA
embryonic motor neuron survival in culture (embryonic motor neuron): enhanced

B5: BDNF: member of the neurotrophin family (protein, UniProt P23560 19-247, looked up)
Neurotrophic factor BDNF …: APMKEANIRGQGGLAYPGVRTHGTLESVNGPKAGSRGLTSLADTFEHVIEELLDEDQKVRPNEENNKDADLYTSRVMLSSQVPLEPPLLFLLEEYKNYLDAANMSMRVRRHSDPARRGELSVCDSISEWVTAADKKTAVDMSGGTVTVLEKVPVSKGQLKQYFYETKCNPMGYTKEGCRGIDKRHWNSQCRTTQSYVRALTMDSKKRIGWRFIRIDTSCVCTLTIKRGR
embryonic motor neuron survival in culture (embryonic motor neuron): enhanced
motoneuronal death occurring naturally during embryonic development (motoneurons): reduction
protective effect in two murine models of inherited progressive motor degeneration [2]: protective effect

B6: CNTF: CNTF rat recombinant protein (Sigma Aldrich); specific stress-protecting factor (protein, UniProt P20294 1-200, looked up)
Ciliary neurotrophic factor: MAFAEQTPLTLHRRDLCSRSIWLARKIRSDLTALMESYVKHQGLNKNINLDSVDGVPVASTDRWSEMTEAERLQENLQAYRTFQGMLTKLLEDQRVHFTPTEGDFHQAIHTLMLQVSAFAYQLEELMVLLEQKIPENEADGMPATVGDGGLFEKKLWGLKVLQELSQWTVRSIHDLRVISSHQMGISALESHYGAKDKQM
upregulation of BiP in VUL MNs (SOD1(G93A) mice [3]; CNTF intramuscular from P20 to P28, before disease onset): completely prevented
UPR/UPS reaction (SOD1(G93A) mice [3]; [8]): effectively prevented
VUL MN BiP and Pi-elF2a signals (SOD1(G93A) mice [3]; [8]): normalized
activation of microglia on the spinal cord side ipsilateral to the treatment (SOD1(G93A) mice [3]; [8]): reduced
downregulation of stress-related protective pathways in VUL MNs (SOD1(G93A) mice [3]; [8]): counteracted
axonal pathology in VUL MNs (SOD1(G93A) mice [4]): effectively attenuates
disease progression (SOD1(G93A) mice [4]): slows
embryonic motor neuron survival in culture (embryonic motor neuron): enhanced
motoneuronal death occurring naturally during embryonic development (motoneurons): reduction
protective effect in two murine models of inherited progressive motor degeneration [2]: protective effect

— patent US20100255485A1, “BIOMARKERS FOR THE ONSET OF NEURODEGENERATIVE DISEASES” (priority 2007, published 2010)
